In patent US20260158147A1:

What was measured:
aBeta [1] = target: aBeta (UniProt P05067); experiment: ELISA; commercial
aBeta [2] = target: aBeta (UniProt P05067); experiment: ELISA

EC50 (aBeta [1]) [nM] | EC50 (aBeta [2]) [nM] | Substance
0.115 |  | Lecanemab (commercial)
 | 0.105 | Lecanemab (unshuttled)
